Experimental data reported in the supplement of paper PMC9112550, “Optimization of the antimicrobial peptide Bac7 by deep mutational scanning” (BMC Biology, 2022).

These sequences were tested on Escherichia coli TOP10 (assay: shrunken log2 fold change of peptide-encoding DNA abundance (4.5 h post-induction vs induction); higher = less antimicrobial activity (less host growth inhibition)). Conditions: time post-induction: 4.5 h; library: site-saturation at positions 5, 18, 19, 20.
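Further: peptides expressed intracellularly from a pBAD plasmid library in pooled LB shake-flask culture, induced with 0.3% L-arabinose, DNA abundance read by NGS, three biological replicates, DESeq2 with apeglm shrinkage.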

| Sequence | shrunken log2 fold change |
| --- | --- |
| RRIRSRPPRLPRPRPRPYHYPRP | -0.527 |
| RRIRLRPPRLPRPRPRPPNEPRP | -0.0407 |
| RRIRARPPRLPRPRPRPAGLPRP | 0.387 |
| RRIRNRPPRLPRPRPRPGHQPRP | -0.0155 |
| RRIRLRPPRLPRPRPRPMRKPRP | 0.651 |
| RRIRMRPPRLPRPRPRPTAFPRP | 0.206 |
| RRIRLRPPRLPRPRPRPHMKPRP | -0.024 |
| RRIRQRPPRLPRPRPRPGVVPRP | 0.000417 |
| RRIRCRPPRLPRPRPRPYVPPRP | -0.323 |
| RRIRQRPPRLPRPRPRPFHQPRP | -0.00804 |
| RRIRHRPPRLPRPRPRPLVTPRP | 1.93 |
| RRIRARPPRLPRPRPRPMRNPRP | 0.756 |
| RRIRFRPPRLPRPRPRPGKRPRP | -0.0962 |
| RRIRSRPPRLPRPRPRPYKWPRP | -0.18 |
| RRIRTRPPRLPRPRPRPTPKPRP | 0.283 |
| RRIRFRPPRLPRPRPRPQNAPRP | 0.0534 |
| RRIRRRPPRLPRPRPRPPCIPRP | 0.156 |
| RRIRLRPPRLPRPRPRPYCSPRP | -0.00936 |
| RRIRYRPPRLPRPRPRPEAYPRP | -0.185 |
| RRIRARPPRLPRPRPRPHVLPRP | -0.0367 |
| RRIRHRPPRLPRPRPRPRQHPRP | 0.0285 |
| RRIRARPPRLPRPRPRPRSFPRP | 0.202 |
| RRIRYRPPRLPRPRPRPDTMPRP | -0.0156 |

| Sequence | shrunken log2 fold change |
| --- | --- |
| RRIRVRPPRLPRPRPRPCRDPRP | -0.4 |
| RRIRPRPPRLPRPRPRPTHAPRP | 0.131 |
| RRIRYRPPRLPRPRPRPMDEPRP | -0.115 |
| RRIRVRPPRLPRPRPRPTLNPRP | -0.102 |
| RRIRRRPPRLPRPRPRPMLCPRP | 0.709 |
| RRIRYRPPRLPRPRPRPNPRPRP | -0.123 |
| RRIRCRPPRLPRPRPRPGNWPRP | 0.0422 |
| RRIRPRPPRLPRPRPRPEIFPRP | 0.137 |
| RRIRHRPPRLPRPRPRPFAVPRP | -1.08 |
| RRIRNRPPRLPRPRPRPLTTPRP | -0.07 |
| RRIRCRPPRLPRPRPRPWRRPRP | 0.0523 |
| RRIRQRPPRLPRPRPRPGDHPRP | -0.0718 |
| RRIRLRPPRLPRPRPRPPSWPRP | 0.0349 |
| RRIRGRPPRLPRPRPRPIHTPRP | 0.0205 |
| RRIRKRPPRLPRPRPRPACRPRP | 0.789 |
| RRIRQRPPRLPRPRPRPCDPPRP | -0.0819 |
| RRIRNRPPRLPRPRPRPRQYPRP | 0.0612 |
| RRIRHRPPRLPRPRPRPNDTPRP | -0.933 |
| RRIRNRPPRLPRPRPRPGRKPRP | 0.132 |
| RRIRIRPPRLPRPRPRPQGLPRP | 0.0413 |
| RRIRHRPPRLPRPRPRPITGPRP | 0.015 |
| RRIRNRPPRLPRPRPRPCYCPRP | -0.00992 |
| RRIRIRPPRLPRPRPRPIPIPRP | -0.317 |

| Sequence | shrunken log2 fold change |
| --- | --- |
| RRIRKRPPRLPRPRPRPAICPRP | 0.0922 |
| RRIRDRPPRLPRPRPRPQCLPRP | 0.0413 |
| RRIRNRPPRLPRPRPRPVVTPRP | -0.114 |
| RRIRGRPPRLPRPRPRPSGIPRP | 0.0684 |
| RRIRMRPPRLPRPRPRPVFSPRP | 0.314 |
| RRIRERPPRLPRPRPRPYPRPRP | -0.00133 |
| RRIRNRPPRLPRPRPRPGLMPRP | 0.235 |
| RRIRMRPPRLPRPRPRPAVHPRP | 0.0654 |
| RRIRPRPPRLPRPRPRPVEIPRP | 0.26 |
| RRIRERPPRLPRPRPRPYEWPRP | -0.00963 |
| RRIRIRPPRLPRPRPRPKCNPRP | -0.701 |
| RRIRQRPPRLPRPRPRPSNKPRP | -0.513 |
| RRIRQRPPRLPRPRPRPHRRPRP | -0.185 |
| RRIRDRPPRLPRPRPRPHLMPRP | -0.283 |
| RRIRYRPPRLPRPRPRPVCWPRP | 0.196 |
| RRIRVRPPRLPRPRPRPLPPPRP | 0.418 |
| RRIRFRPPRLPRPRPRPYGDPRP | -0.0819 |
| RRIRARPPRLPRPRPRPKKGPRP | 0.364 |
| RRIRDRPPRLPRPRPRPHAGPRP | 0.0575 |
| RRIRQRPPRLPRPRPRPPWDPRP | 0.224 |
| RRIRQRPPRLPRPRPRPMLPPRP | -0.384 |
| RRIRNRPPRLPRPRPRPEWMPRP | 0.066 |
| RRIRARPPRLPRPRPRPWDRPRP | 0.0339 |

| Sequence | shrunken log2 fold change |
| --- | --- |
| RRIRWRPPRLPRPRPRPEWDPRP | 1.22 |
| RRIRFRPPRLPRPRPRPARDPRP | 0.732 |
| RRIRLRPPRLPRPRPRPGQVPRP | 0.318 |
| RRIRDRPPRLPRPRPRPMRKPRP | 0.763 |
| RRIRKRPPRLPRPRPRPRMKPRP | 0.346 |
| RRIRTRPPRLPRPRPRPISEPRP | 0.00252 |
| RRIRGRPPRLPRPRPRPIRLPRP | -0.0112 |
| RRIRGRPPRLPRPRPRPLCLPRP | 0.437 |
| RRIRSRPPRLPRPRPRPMVAPRP | 0.0774 |
| RRIRCRPPRLPRPRPRPWITPRP | -1.47 |
| RRIRWRPPRLPRPRPRPLTIPRP | -0.162 |
| RRIRWRPPRLPRPRPRPTERPRP | -0.124 |
| RRIRPRPPRLPRPRPRPGMCPRP | -0.0873 |
| RRIRWRPPRLPRPRPRPMEYPRP | 0.0388 |
| RRIRYRPPRLPRPRPRPINPPRP | -0.269 |
| RRIRIRPPRLPRPRPRPPCTPRP | -0.332 |
| RRIRTRPPRLPRPRPRPSNLPRP | -0.97 |
| RRIRPRPPRLPRPRPRPIRMPRP | -0.039 |
| RRIRSRPPRLPRPRPRPNVLPRP | 0.105 |
| RRIRARPPRLPRPRPRPEFAPRP | 0.727 |
| RRIRTRPPRLPRPRPRPELVPRP | 0.0224 |
| RRIRNRPPRLPRPRPRPGILPRP | -0.337 |
